Tested on: Escherichia coli TOP10
Test: shrunken log2 fold change of peptide-encoding DNA abundance (4.5 h post-induction vs induction); higher = less antimicrobial activity (less host growth inhibition)
Details: time post-induction: 4.5 h; library: site-saturation at positions 5, 18, 19, 20
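Also: peptides expressed intracellularly from a pBAD plasmid library in pooled LB shake-flask culture, induced with 0.3% L-arabinose, DNA abundance read by NGS, three biological replicates, DESeq2 with apeglm shrinkage.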

Sequence | shrunken log2 fold change
RRIRIRPPRLPRPRPRPGPCPRP | 0.255
RRIRIRPPRLPRPRPRPGPKPRP | 0.00436
RRIRIRPPRLPRPRPRPGQHPRP | -0.0183
RRIRIRPPRLPRPRPRPGQPPRP | 0.0462
RRIRIRPPRLPRPRPRPGRRPRP | 0.18
RRIRIRPPRLPRPRPRPGSLPRP | -0.475
RRIRIRPPRLPRPRPRPGTGPRP | 0.0659
RRIRIRPPRLPRPRPRPGWFPRP | -0.141
RRIRIRPPRLPRPRPRPGWSPRP | 0.312
RRIRIRPPRLPRPRPRPHEHPRP | -0.405
RRIRIRPPRLPRPRPRPHEPPRP | -0.129
RRIRIRPPRLPRPRPRPHETPRP | 0.0188
RRIRIRPPRLPRPRPRPHFSPRP | -0.181
RRIRIRPPRLPRPRPRPHINPRP | -0.853
RRIRIRPPRLPRPRPRPHKLPRP | -0.552
RRIRIRPPRLPRPRPRPHKPPRP | -0.00445
RRIRIRPPRLPRPRPRPHLHPRP | -0.784
RRIRIRPPRLPRPRPRPHLRPRP | -0.00802
RRIRIRPPRLPRPRPRPHLWPRP | -0.256
RRIRIRPPRLPRPRPRPHMWPRP | -0.321
RRIRIRPPRLPRPRPRPHPFPRP | -0.583
RRIRIRPPRLPRPRPRPHPHPRP | -0.496
RRIRIRPPRLPRPRPRPHQDPRP | -0.122
RRIRIRPPRLPRPRPRPHRSPRP | 0.0394
RRIRIRPPRLPRPRPRPHRTPRP | -0.125

Sequence | shrunken log2 fold change
RRIRIRPPRLPRPRPRPHRYPRP | -0.171
RRIRIRPPRLPRPRPRPHSNPRP | -0.502
RRIRIRPPRLPRPRPRPHTGPRP | -0.356
RRIRIRPPRLPRPRPRPHTPPRP | -0.721
RRIRIRPPRLPRPRPRPHVMPRP | -0.492
RRIRIRPPRLPRPRPRPHWGPRP | -0.175
RRIRIRPPRLPRPRPRPHWYPRP | -1.16
RRIRIRPPRLPRPRPRPHYKPRP | -0.756
RRIRIRPPRLPRPRPRPHYMPRP | -0.943
RRIRIRPPRLPRPRPRPHYPPRP | -0.32
RRIRIRPPRLPRPRPRPIARPRP | 0.136
RRIRIRPPRLPRPRPRPIDEPRP | 0.0184
RRIRIRPPRLPRPRPRPIFDPRP | -0.237
RRIRIRPPRLPRPRPRPIFLPRP | -0.416
RRIRIRPPRLPRPRPRPIHDPRP | 2.93
RRIRIRPPRLPRPRPRPIHGPRP | -0.0135
RRIRIRPPRLPRPRPRPIIEPRP | -0.0807
RRIRIRPPRLPRPRPRPIKGPRP | -0.068
RRIRIRPPRLPRPRPRPINFPRP | -0.346
RRIRIRPPRLPRPRPRPINRPRP | -0.312
RRIRIRPPRLPRPRPRPINYPRP | -0.379
RRIRIRPPRLPRPRPRPIPRPRP | 0.0123
RRIRIRPPRLPRPRPRPIQDPRP | -0.205
RRIRIRPPRLPRPRPRPIQFPRP | -0.048
RRIRIRPPRLPRPRPRPIQIPRP | -0.0257

Sequence | shrunken log2 fold change
RRIRIRPPRLPRPRPRPISKPRP | -0.161
RRIRIRPPRLPRPRPRPIVKPRP | -0.0118
RRIRIRPPRLPRPRPRPIVRPRP | -0.339
RRIRIRPPRLPRPRPRPIVTPRP | -0.429
RRIRIRPPRLPRPRPRPIWWPRP | 0.0713
RRIRIRPPRLPRPRPRPIYIPRP | -0.159
RRIRIRPPRLPRPRPRPKAVPRP | -0.00677
RRIRIRPPRLPRPRPRPKDCPRP | -0.0124
RRIRIRPPRLPRPRPRPKEIPRP | -0.113
RRIRIRPPRLPRPRPRPKELPRP | -0.563
RRIRIRPPRLPRPRPRPKFHPRP | -0.375
RRIRIRPPRLPRPRPRPKFSPRP | -0.244
RRIRIRPPRLPRPRPRPKFTPRP | -0.8
RRIRIRPPRLPRPRPRPKIFPRP | 0.27
RRIRIRPPRLPRPRPRPKIGPRP | -0.0343
RRIRIRPPRLPRPRPRPKIMPRP | -0.549
RRIRIRPPRLPRPRPRPKIRPRP | -0.0911
RRIRIRPPRLPRPRPRPKITPRP | -0.83
RRIRIRPPRLPRPRPRPKKPPRP | 0.0487
RRIRIRPPRLPRPRPRPKLWPRP | -0.182
RRIRIRPPRLPRPRPRPKPDPRP | 0.528
RRIRIRPPRLPRPRPRPKPRPRP | 0.576
RRIRIRPPRLPRPRPRPKQMPRP | -0.166
RRIRIRPPRLPRPRPRPKQSPRP | -0.384
RRIRIRPPRLPRPRPRPKRMPRP | -0.518
